IntAct's records for PubMed 16272220

What was measured:
trx1_yeast TRX1 = target: T1, trx1_yeast TRX1 (UniProt P22217)
T1 sequence: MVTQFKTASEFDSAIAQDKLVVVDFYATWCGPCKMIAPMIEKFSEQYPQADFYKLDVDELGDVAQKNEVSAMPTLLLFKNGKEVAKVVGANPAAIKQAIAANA

trx2_yeast TRX2 = target: T2, trx2_yeast TRX2 (UniProt P22803)
T2 sequence: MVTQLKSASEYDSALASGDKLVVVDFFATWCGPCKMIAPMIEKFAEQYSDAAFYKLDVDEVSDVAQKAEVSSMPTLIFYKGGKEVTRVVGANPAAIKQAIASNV

- effect of a mutation on the interaction (trx1_yeast TRX1): decreasing interaction
- effect of a mutation on the interaction (trx2_yeast TRX2): decreasing interaction
Substance: Phosphoadenosine phosphosulfate reductase (Saccharomyces cerevisiae) (from UniProt P18408) C245S
